Data on eleven molecules can be found in patent US20210261648A1 (published 2021).

Experiment [1] addresses T1, FcγRIa extracellular domain with C-terminal His tag (human, UniProt P12314 16-292).
T1 construct: also called FcgRIa
The experiment in a line: SPR, captured antibody, FcgR analyte. (In SPR one partner is held on a chip, and binding of the other changes the refractive index at the surface.)
Protocol: (§1) Relative binding activities were calculated for the results of analyzing interactions with the respective FcγRs according to the following method.

The target in experiment [2] is T2, FcγRIIa type H extracellular domain with C-terminal His tag (human, UniProt P12318 34-217).
T2 construct: extracellular domain; also called FcgRIIaH; FcγRIIa H
T2 sequence (looked up): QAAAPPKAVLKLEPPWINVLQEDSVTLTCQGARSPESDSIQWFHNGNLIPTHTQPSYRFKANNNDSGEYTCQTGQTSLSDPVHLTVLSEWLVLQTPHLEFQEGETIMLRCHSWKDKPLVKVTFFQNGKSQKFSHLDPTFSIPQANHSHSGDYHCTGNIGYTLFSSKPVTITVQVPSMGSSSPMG
As to the kind of experiment: SPR, captured antibody, FcgR analyte.
Protocol: as §1

Experiment [3] deals with T3, FcγRIIb extracellular domain with C-terminal His tag (human, UniProt P31994 43-217).
T3 construct: extracellular domain; also called FcgRIIb
T3 sequence (looked up): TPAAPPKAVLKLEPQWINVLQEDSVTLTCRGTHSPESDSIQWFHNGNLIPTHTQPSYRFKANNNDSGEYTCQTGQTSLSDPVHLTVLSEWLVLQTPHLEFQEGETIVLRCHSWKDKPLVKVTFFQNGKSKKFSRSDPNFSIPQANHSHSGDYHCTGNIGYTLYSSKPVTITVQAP
As to the kind of experiment: SPR, captured antibody, FcgR analyte.
Protocol: as §1

Experiment [4] addresses T4, FcγRIIb extracellular domain with C-terminal His tag (human, UniProt P31994 43-217).
T4 construct: extracellular domain; For crystals it was expressed with kifunensine and trimmed with Endo F1; also called FcgRIIb; FcγRIIb extracellular region
T4 sequence (looked up): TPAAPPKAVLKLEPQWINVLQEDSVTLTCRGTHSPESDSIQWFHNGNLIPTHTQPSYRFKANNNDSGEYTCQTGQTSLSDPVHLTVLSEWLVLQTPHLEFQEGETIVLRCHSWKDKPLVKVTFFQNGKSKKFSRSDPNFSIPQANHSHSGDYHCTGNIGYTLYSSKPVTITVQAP
As to the kind of experiment: SPR (Biacore).

T1 sequence (P12314 16-292): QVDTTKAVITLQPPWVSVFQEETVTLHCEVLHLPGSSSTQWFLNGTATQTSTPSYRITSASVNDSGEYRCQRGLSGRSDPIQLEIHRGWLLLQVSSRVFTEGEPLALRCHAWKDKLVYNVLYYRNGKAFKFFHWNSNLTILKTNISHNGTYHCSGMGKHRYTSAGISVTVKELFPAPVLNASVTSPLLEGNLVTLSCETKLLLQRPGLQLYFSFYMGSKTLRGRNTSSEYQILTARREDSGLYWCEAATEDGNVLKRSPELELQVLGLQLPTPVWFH

B1: IL6R-BP214/IL6R-L (antibody, human IgG1, kappa)
heavy: QVQLQESGPGLVKPSETLSLTCAVSGHSISHDHAWSWVRQPPGEGLEWIGFISYSGITNYNPSLQGRVTISRDNSKNTLYLQMNSLRAEDTAVYYCARSLARTTAMDYWGEGTLVTVSSASTKGPSVFPLAPSSKSTSGGTAALGCLVKDYFPEPVTVSWNSGALTSGVHTFPAVLQSSGLYSLSSVVTVPSSSLGTQTYICNVNHKPSNTKVDKKVEPKSCDKTHTCPPCPAPDYLGDDSVFLFPPKPKDTLMISRTPEVTCVVVDVSHEDPEVKFNWYVDGVEVHNAKTKPREEQDNSTYRVVSVLTVLHQDWLNGKEYKCKVSNDALPKPIEKTISKAKGQPREPQVYTLPPSRDELTKNQVSLTCLVKGFYPSDIAVEWESNGQPENNYKTTPPVLDSDGSFFLYSKLTVDKSRWQQGNVFSCSVMHEALHNHYTQESLSLSP
light: not shown
Take B1: the relative binding activity was 36 relative (IL6R-BF648/IL6R-L = 100) in experiment [1], 285 relative (IL6R-BF648/IL6R-L = 100) in experiment [2] and 174 relative (IL6R-BF648/IL6R-L = 100) in experiment [3].

B2: IL6R-BP185/IL6R-L (antibody, human IgG1, kappa)
heavy: QVQLQESGPGLVKPSETLSLTCAVSGHSISHDHAWSWVRQPPGEGLEWIGFISYSGITNYNPSLQGRVTISRDNSKNTLYLQMNSLRAEDTAVYYCARSLARTTAMDYWGEGTLVTVSSASTKGPSVFPLAPSSKSTSGGTAALGCLVKDYFPEPVTVSWNSGALTSGVHTFPAVLQSSGLYSLSSVVTVPSSSLGTQTYICNVNHKPSNTKVDKKVEPKSCDKTHTCPPCPAPDYLGDDSVFLFPPKPKDTLMISRTPEVTCVVVDVSHEDGEVKFNWYVDGVEVHNAKTKPREEQYNSTYRVVSVLTVLHQDWLNGKEYKCKVSNAALPKPIEKTISKAKGQPREPQVYTLPPSRDELTKNQVSLTCLVKGFYPSDIAVEWESNGQPENNYKTTPPVLDSDGSFFLYSKLTVDKSRWQQGNVFSCSVMHEALHNHYTQESLSLSP
light: not shown
Take B2: the relative binding activity in experiment [1] is 47 relative (IL6R-BF648/IL6R-L = 100); in experiment [2], 446 relative (IL6R-BF648/IL6R-L = 100); in experiment [3], 179 relative (IL6R-BF648/IL6R-L = 100).

B3: IL6R-BP391/IL6R-L (antibody, human IgG1, kappa)
heavy: QVQLQESGPGLVKPSETLSLTCAVSGHSISHDHAWSWVRQPPGEGLEWIGFISYSGITNYNPSLQGRVTISRDNSKNTLYLQMNSLRAEDTAVYYCARSLARTTAMDYWGEGTLVTVSSASTKGPSVFPLAPSSKSTSGGTAALGCLVKDYFPEPVTVSWNSGALTSGVHTFPAVLQSSGLYSLSSVVTVPSSSLGTQTYICNVNHKPSNTKVDKKVEPKSCDKTHTCPPCPAPDLLGDDSVFLFPPKPKDTLMISRTPEVTCVVVDVSDEDGEVKFNWYVDGVEVHNAKTKPREEQDNSTYRVVSVLTVLHQDWLNGKEYKCKVSNKALPRPTEKTISKAKGQPREPQVYTLPPSRDELTKNQVSLTCLVKGFYPSDIAVEWESNGQPENNYKTTPPVLDSDGSFFLYSKLTVDKSRWQQGNVFSCSVMHEALHNHYTQESLSLSP
light: not shown
B3: the binding result in experiment [4] is recorded as “binds”.

B4: IL6R-BP453/IL6R-L (antibody)
heavy: QVQLQESGPGLVKPSETLSLTCAVSGHSISHDHAWSWVRQPPGEGLEWIGFISYSGITNYNPSLQGRVTISRDNSKNTLYLQMNSLRAEDTAVYYCARSLARTTAMDYWGEGTLVTVSSASTKGPSVFPLAPSSKSTSGGTAALGCLVKDYFPEPVTVSWNSGALTSGVHTFPAVLQSSGLYSLSSVVTVPSSSLGTQTYICNVNHKPSNTKVDKKVEPKSCDKTHTCPPCPAPDLLGDDSVFLFPPKPKDTLMISRTPEVTCVVVDVAEEDGEVKFNWYVDGVEVHNAKTKPREEQYNSTYRVVSVLTVLHQDWLNGKEYKCKVSNKALPRPIEKTISKAKGQPREPQVYTLPPSRDELTKNQVSLTCLVKGFYPSDIAVEWESNGQPENNYKTTPIVLDSDGSFFLYSKLTVDKSRWQQGNVFSCSVMHEALHNHYTQESLSLSP
light: not shown
notes: Printed 'P3961'
Turning to B4, in experiment [4], the binding result is on record as “binds”.

B5: IL6R-BP448/IL6R-L (antibody, human IgG1, kappa, name in EU numbering)
heavy: QVQLQESGPGLVKPSETLSLTCAVSGHSISHDHAWSWVRQPPGEGLEWIGFISYSGITNYNPSLQGRVTISRDNSKNTLYLQMNSLRAEDTAVYYCARSLARTTAMDYWGEGTLVTVSSASTKGPSVFPLAPSSKSTSGGTAALGCLVKDYFPEPVTVSWNSGALTSGVHTFPAVLQSSGLYSLSSVVTVPSSSLGTQTYICNVNHKPSNTKVDKKVEPKSCDKTHTCPPCPAPDLLGDDSVFLFPPKPKDTLMISRTPEVTCVVVDVAEEDGEVKFNWYVDGVEVHNAKTKPREEQYNSTYRVVSVLTVLHQDWLNGKEYKCKVSNKALPRPIEKTISKAKGQPREPQVYTLPPSRDELTKNQVSLTCLVKGFYPSDIAVEWESNGQPENNYKTTPDVLDSDGSFFLYSKLTVDKSRWQQGNVFSCSVMHEALHNHYTQESLSLSP
light: not shown
B5: in experiment [4], the binding result is “binds”.

B6: IL6R-BP450/IL6R-L (antibody, human IgG1, kappa, name in EU numbering)
heavy: QVQLQESGPGLVKPSETLSLTCAVSGHSISHDHAWSWVRQPPGEGLEWIGFISYSGITNYNPSLQGRVTISRDNSKNTLYLQMNSLRAEDTAVYYCARSLARTTAMDYWGEGTLVTVSSASTKGPSVFPLAPSSKSTSGGTAALGCLVKDYFPEPVTVSWNSGALTSGVHTFPAVLQSSGLYSLSSVVTVPSSSLGTQTYICNVNHKPSNTKVDKKVEPKSCDKTHTCPPCPAPDLLGDDSVFLFPPKPKDTLMISRTPEVTCVVVDVAEEDGEVKFNWYVDGVEVHNAKTKPREEQYNSTYRVVSVLTVLHQDWLNGKEYKCKVSNKALPRPIEKTISKAKGQPREPQVYTLPPSRDELTKNQVSLTCLVKGFYPSDIAVEWESNGQPENNYKTTPFVLDSDGSFFLYSKLTVDKSRWQQGNVFSCSVMHEALHNHYTQESLSLSP
light: not shown
As to B6, in experiment [4], the binding result was “binds”.

B7: IL6R-BP404/IL6R-L (antibody, human IgG1, kappa)
heavy: QVQLQESGPGLVKPSETLSLTCAVSGHSISHDHAWSWVRQPPGEGLEWIGFISYSGITNYNPSLQGRVTISRDNSKNTLYLQMNSLRAEDTAVYYCARSLARTTAMDYWGEGTLVTVSSASTKGPSVFPLAPSSKSTSGGTAALGCLVKDYFPEPVTVSWNSGALTSGVHTFPAVLQSSGLYSLSSVVTVPSSSLGTQTYICNVNHKPSNTKVDKKVEPKSCDKTHTCPPCPAPDYLGDDSVFLFPPKPKDTLMISRTPEVTCVVVDVSEEDGEVKFNWYVDGVEVHNAKTKPREEQDNSTYRVVSVLTVLHQDWLNGKEYKCKVSNKALPRPIEKTISKAKGQPREPQVYTLPPSRDELTKNQVSLTCLVKGFYPSDIAVEWESNGQPENNYKTTPPVLDSDGSFFLYSKLTVDKSRWQQGNVFSCSVMHEALHNHYTQESLSLSP
light: not shown
With B7, the “fold increase of binding against IL6R-BP264/IL6R-L” value in experiment [4] came out at 1.1 fold.

B8: IL6R-BP456/IL6R-L (antibody, human IgG1, kappa, name in EU numbering)
heavy: QVQLQESGPGLVKPSETLSLTCAVSGHSISHDHAWSWVRQPPGEGLEWIGFISYSGITNYNPSLQGRVTISRDNSKNTLYLQMNSLRAEDTAVYYCARSLARTTAMDYWGEGTLVTVSSASTKGPSVFPLAPSSKSTSGGTAALGCLVKDYFPEPVTVSWNSGALTSGVHTFPAVLQSSGLYSLSSVVTVPSSSLGTQTYICNVNHKPSNTKVDKKVEPKSCDKTHTCPPCPAPDLLGDDSVFLFPPKPKDTLMISRTPEVTCVVVDVAEEDGEVKFNWYVDGVEVHNAKTKPREEQYNSTYRVVSVLTVLHQDWLNGKEYKCKVSNKALPRPIEKTISKAKGQPREPQVYTLPPSRDELTKNQVSLTCLVKGFYPSDIAVEWESNGQPENNYKTTPMVLDSDGSFFLYSKLTVDKSRWQQGNVFSCSVMHEALHNHYTQESLSLSP
light: not shown
Take B8: the binding result in experiment [4] is “binds”.

B9: IL6R-BP449/IL6R-L (antibody, human IgG1, kappa, name in EU numbering)
heavy: QVQLQESGPGLVKPSETLSLTCAVSGHSISHDHAWSWVRQPPGEGLEWIGFISYSGITNYNPSLQGRVTISRDNSKNTLYLQMNSLRAEDTAVYYCARSLARTTAMDYWGEGTLVTVSSASTKGPSVFPLAPSSKSTSGGTAALGCLVKDYFPEPVTVSWNSGALTSGVHTFPAVLQSSGLYSLSSVVTVPSSSLGTQTYICNVNHKPSNTKVDKKVEPKSCDKTHTCPPCPAPDLLGDDSVFLFPPKPKDTLMISRTPEVTCVVVDVAEEDGEVKFNWYVDGVEVHNAKTKPREEQYNSTYRVVSVLTVLHQDWLNGKEYKCKVSNKALPRPIEKTISKAKGQPREPQVYTLPPSRDELTKNQVSLTCLVKGFYPSDIAVEWESNGQPENNYKTTPEVLDSDGSFFLYSKLTVDKSRWQQGNVFSCSVMHEALHNHYTQESLSLSP
light: not shown
With B9, in experiment [4], the binding result is reported as “binds”.

B10: IL6R-BP455/IL6R-L (antibody, human IgG1, kappa, name in EU numbering)
heavy: QVQLQESGPGLVKPSETLSLTCAVSGHSISHDHAWSWVRQPPGEGLEWIGFISYSGITNYNPSLQGRVTISRDNSKNTLYLQMNSLRAEDTAVYYCARSLARTTAMDYWGEGTLVTVSSASTKGPSVFPLAPSSKSTSGGTAALGCLVKDYFPEPVTVSWNSGALTSGVHTFPAVLQSSGLYSLSSVVTVPSSSLGTQTYICNVNHKPSNTKVDKKVEPKSCDKTHTCPPCPAPDLLGDDSVFLFPPKPKDTLMISRTPEVTCVVVDVAEEDGEVKFNWYVDGVEVHNAKTKPREEQYNSTYRVVSVLTVLHQDWLNGKEYKCKVSNKALPRPIEKTISKAKGQPREPQVYTLPPSRDELTKNQVSLTCLVKGFYPSDIAVEWESNGQPENNYKTTPLVLDSDGSFFLYSKLTVDKSRWQQGNVFSCSVMHEALHNHYTQESLSLSP
light: not shown
Consider B10, for which, in experiment [4], the binding result is given as “binds”.

B11: IL6R-BP454/IL6R-L (antibody, human IgG1, kappa, name in EU numbering)
heavy: QVQLQESGPGLVKPSETLSLTCAVSGHSISHDHAWSWVRQPPGEGLEWIGFISYSGITNYNPSLQGRVTISRDNSKNTLYLQMNSLRAEDTAVYYCARSLARTTAMDYWGEGTLVTVSSASTKGPSVFPLAPSSKSTSGGTAALGCLVKDYFPEPVTVSWNSGALTSGVHTFPAVLQSSGLYSLSSVVTVPSSSLGTQTYICNVNHKPSNTKVDKKVEPKSCDKTHTCPPCPAPDLLGDDSVFLFPPKPKDTLMISRTPEVTCVVVDVAEEDGEVKFNWYVDGVEVHNAKTKPREEQYNSTYRVVSVLTVLHQDWLNGKEYKCKVSNKALPRPIEKTISKAKGQPREPQVYTLPPSRDELTKNQVSLTCLVKGFYPSDIAVEWESNGQPENNYKTTPKVLDSDGSFFLYSKLTVDKSRWQQGNVFSCSVMHEALHNHYTQESLSLSP
light: not shown
Consider B11, for which the binding result in experiment [4] is reported as “binds”.
